In the Human Domainome abundance scans (Beltran et al. 2025):
± gives the uncertainty stated by the source.

Assay: abundance fitness (aPCA) (normalised: wild type 0, dead -1); higher = more abundant; growth selection in yeast, the domain comes from the species named
Conditions: Homo sapiens

Substance	abundance fitness
Lipoamide acyltransferase component of branched-chain alpha-keto acid dehydrogenase complex, mitochondrial K202A, P11182	0.039 ± 0.042
Lipoamide acyltransferase component of branched-chain alpha-keto acid dehydrogenase complex, mitochondrial K202C, P11182	-0.282 ± 0.086
Lipoamide acyltransferase component of branched-chain alpha-keto acid dehydrogenase complex, mitochondrial K202D, P11182	-0.215 ± 0.058
Lipoamide acyltransferase component of branched-chain alpha-keto acid dehydrogenase complex, mitochondrial K202E, P11182	0.069 ± 0.052
Lipoamide acyltransferase component of branched-chain alpha-keto acid dehydrogenase complex, mitochondrial K202G, P11182	-0.135 ± 0.038
Lipoamide acyltransferase component of branched-chain alpha-keto acid dehydrogenase complex, mitochondrial K202I, P11182	-0.017 ± 0.17
Lipoamide acyltransferase component of branched-chain alpha-keto acid dehydrogenase complex, mitochondrial K202L, P11182	-0.118 ± 0.047
Lipoamide acyltransferase component of branched-chain alpha-keto acid dehydrogenase complex, mitochondrial K202M, P11182	-0.089 ± 0.053
Lipoamide acyltransferase component of branched-chain alpha-keto acid dehydrogenase complex, mitochondrial K202P, P11182	0.011 ± 0.052
Lipoamide acyltransferase component of branched-chain alpha-keto acid dehydrogenase complex, mitochondrial K202Q, P11182	-0.088 ± 0.049
Lipoamide acyltransferase component of branched-chain alpha-keto acid dehydrogenase complex, mitochondrial K202R, P11182	-0.001 ± 0.037
Lipoamide acyltransferase component of branched-chain alpha-keto acid dehydrogenase complex, mitochondrial K202S, P11182	-0.124 ± 0.049
Lipoamide acyltransferase component of branched-chain alpha-keto acid dehydrogenase complex, mitochondrial K202T, P11182	-0.211 ± 0.062
Lipoamide acyltransferase component of branched-chain alpha-keto acid dehydrogenase complex, mitochondrial K202V, P11182	-0.105 ± 0.044
Lipoamide acyltransferase component of branched-chain alpha-keto acid dehydrogenase complex, mitochondrial K202W, P11182	-0.276 ± 0.056
Lipoamide acyltransferase component of branched-chain alpha-keto acid dehydrogenase complex, mitochondrial K211A, P11182	0.066 ± 0.043
Lipoamide acyltransferase component of branched-chain alpha-keto acid dehydrogenase complex, mitochondrial K211C, P11182	-0.056 ± 0.053
Lipoamide acyltransferase component of branched-chain alpha-keto acid dehydrogenase complex, mitochondrial K211D, P11182	-0.076 ± 0.053
Lipoamide acyltransferase component of branched-chain alpha-keto acid dehydrogenase complex, mitochondrial K211E, P11182	-0.045 ± 0.039
